Laboratory results taken from IntAct's records for PubMed 21743457.

B1: Cell division control protein 13 (Saccharomyces cerevisiae), P32797 (parent)
chain: MDTLEEPECPPHKNRIFVSSSKDFEGYPSKAIVPVQFVALLTSIHLTETKCLLGFSNFERRGDQSQEDQYLIKLKFKDRGSERLARITISLLCQYFDIELPDLDSDSGASPTVILRDIHLERLCFSSCKALYVSKHGNYTLFLEDIKPLDLVSVISTISTKSTNSSKHSSSELISECDLNNSLVDIFNNLIEMNRDEKNRFKFVKLIHYDIELKKFVQDQQKVLSQKSKAAAINPFFVPNRLGIPYIESQNEFNSQLMTLNVDEPTTDISNMGEEMHDSADPIEDSDSSTTSSTGKYFSSKSYIQSQTPERKTSVPNNWHDDDSGSKRKRKLSFHSPNASSIRKAISYEQLSLASVGSVERLEGKIVGMNPPQFASINEFKYCTLKLYFTQLLPNVPDKVLVPGVNCIEIVIPTRERICELFGVLNCQSDKISDILLLEKPDRISVEVERILWDNDKTASPGMAVWSLKNISTDTQAQAQVQVPAQSSASIDPSRTRMSKMARKDPTIEFCQLGLDTFETKYITMFGMLVSCSFDKPAFISFVFSDFTKNDIVQNYLYDRYLIDYENKLELNEGFKAIMYKNQFETFDSKLRKIFNNGLRDLQNGRDENLSQYGIVCKMNIKVKMYNGKLNAIVRECEPVPHSQISSIASPSQCEHLRLFYQRAFKRIGESAISRYFEEYRRFFPIHRNGSHLAKLRFDEVKHEPKKSPTTPALAEHIPDLNADVSSFDVKFTDISSLLDSSARLPRPQQTHKSNTLYSCEGRIIAIEYHASDLCFHITNELPLLQTRGLAPERVLQLHIITSKNFAYFFNRSSAYLQRQPLEEKYTQLAQFLGHSFKFNITSSLTLFPDTTVALQIWCPIECTFRELQQQLAHPKVAAAPDSGSLDCAINATVNPLRLLAAQNGVTVKKEEDNDDDAGAVPTS
partner: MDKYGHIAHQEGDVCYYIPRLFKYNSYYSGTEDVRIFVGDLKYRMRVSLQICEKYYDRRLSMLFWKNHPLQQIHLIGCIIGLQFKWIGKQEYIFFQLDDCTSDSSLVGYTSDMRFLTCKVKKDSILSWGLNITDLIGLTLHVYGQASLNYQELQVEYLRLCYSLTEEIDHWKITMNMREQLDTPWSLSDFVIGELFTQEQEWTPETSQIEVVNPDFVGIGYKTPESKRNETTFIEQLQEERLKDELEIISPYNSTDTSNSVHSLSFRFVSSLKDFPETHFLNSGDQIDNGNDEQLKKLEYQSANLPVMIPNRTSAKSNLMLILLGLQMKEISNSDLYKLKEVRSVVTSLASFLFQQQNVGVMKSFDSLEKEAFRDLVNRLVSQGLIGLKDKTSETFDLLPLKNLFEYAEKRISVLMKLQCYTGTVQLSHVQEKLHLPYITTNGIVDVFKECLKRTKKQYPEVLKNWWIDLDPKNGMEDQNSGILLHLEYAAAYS
B2: Cell division control protein 13 (Saccharomyces cerevisiae), P32797 (parent)
chain: B1 chain

Variants of: B1
Details: with stn1_yeast STN1, P38960

| Variant | effect of a mutation on the interaction |
| --- | --- |
| K909R | decreasing interaction |

Variants of: B2
Details: with smt3_yeast SMT3, Q12306
Sequence of smt3_yeast SMT3, Q12306 (Q12306 whole entry): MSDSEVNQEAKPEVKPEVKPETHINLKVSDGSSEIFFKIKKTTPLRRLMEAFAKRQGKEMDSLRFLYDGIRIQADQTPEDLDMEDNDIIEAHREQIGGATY

| Variant | effect of a mutation on the interaction |
| --- | --- |
| K909R | disrupting interaction |
